One data set addresses histone H4 (UniProt P62805 2-103). In words: aptamer blot; on nitrocellulose; all four histone types labeled without selectivity; Dot blot/aptamer blot: 20 mM Tris-HCl, 100 mM NaCl, 5 mM MgCl2, 0.1% BSA (pH not given), 50 nM aptamer in dot blot (membranes equilibrated at 4 C), blots 1 h af.
In another data set the target is Maltose-binding protein (Escherichia coli (strain K12), UniProt P0AEX9 27-396). As to the kind of experiment: Western blot, SDS-denatured protein on nitrocellulose. The settings on record: label: 5'-Cy5.5.

B1: 3.13 (ssDNA)
DNA: GAGTGTGGTTCCCGGGAGGGCGCCTACGGGTCCCGTATTCGGATTTGTGC
B1: the binding result in the data set with histone H4 is recorded as “binds”.

B2: G1 (ssDNA)
DNA: ATACGACTCACTATTAGGGACAAAGCTGACAACCCTTTCATAATCTAACTACATTTATGTGCTAGACTACTGACTAC
Turning to B2, the binding result in the data set with Maltose-binding protein was “no binding”.

The record behind these values is publication PMC7658645, “Aptamer-Based Western Blot for Selective Protein Recognition”.
